Measurements as given in the DeepSol protein solubility set.

Experiment: soluble on expression in E. coli; label from the status in PepcDB or PDB records

Row | Sequence | soluble on expression in E. coli
1 | MGSDKIHHHHHHMVNDMQERQNRYWQLLHQPDRLLLLHQASSVEQFVTLMGDWLAWPELTLDQMLDFVHMQRWEDFTPKLALFSQAWLPYRYCSQSKEVYWIPAFNQLSKPFLEDDISDIRLGLLAIFIQPKTLLKSLLTQCDSVPEIHPCLMIFHWSRCGSTLVSSSFSKLNDCLVISESMLCSDIMRDDFWSQEVKVKLVDLCLRLQGRFRHGERHLVVKWNAWDLAYWPMLLALYPQSRVLCLIRNPKDILASHQRLAGRHMVEGQGLLSTEWHIQQIETVSTTFSLNKFRISVLQHLAQLTHALLNSNRAILLDYQQVKDFHPTTLSTILGRPLSMDEIECWQDHWCFDAKQQGQVFTPAVSNQPVPLRELQSPSWQQLFMTYNQLLQRLYWDKKHDV | not soluble
2 | MRKVRIANEQTEESDIIKIVHLSDIHFSEAYYMPEIADSMLQIINESSPDIVIITGDLTENGFAAEYNGAKNFIDKIECKNKVIVPGNHDSKNAGYLFFEDIFKARSSSGYFGDVTVIGLDSSQPELDDGHIGRENYGWIESTFSTGSFKVFALHHHLIPIPKTGRGNNVLVDAGDVLELLDRSGVNLVLCGHWHIPWVWRLNDMFIISAGTVCSSKIRGKTSQCYNLIELETPESECTRWHLRITRVFSSGIKELVVDNIV | not soluble
3 | MGILSDKDIAYLKDLFGKELKRKVKIVFFKTEDKTRCQYCEITEQVLEELVSVDPKLELEIHDFDSDKEAVEKYQVEMVPATILLPEDGKDYGIRFYGVPSGHEFGTLIQDIITVSEGKPQLSEESIQKLQSLEEPIRISVFVTPTCPYCPRAVLMAHNMAMASDKIIGEMIEANEYWELSEKFGVSSVPHIVVNRDPSKFFVGAYPEKEFINEVLRLAKG | soluble
4 | MDVEAFYKISYGLYIVTSESNGRKCGQIANTVFQLTSKPVQIAVCLNKENDTHNAVKESGAFGVSVLELETPMEFIGRFGFRKSSEFEKFDGVEYKTGKTGVPLVTQHAVAVIEAKVVKECDVGTHTLFVGEAVDAEVLKDAEVLTYADYHLMKKGKTPRTATVYFESK | soluble
5 | MSLVDLDLTQIQKDILYALITLYKKKSGGSVKGEEIAELINRNPGTVRNQMQALRALGLVEGVPGPKGGYRPTSKAYELLSVTRPEESVVVPVVVNGNVMEELSAEEIVLPSISNPNICQARIRIIGDIKKINPGDSVIVGPTPVNEMMVYGKVVGRDDTENTIVLDIEKIVALPKDTVGEHMSSPIISVDAEESVVNAAKVLAENGIYCTPVQKNGKFVGIFTLDHVAKAVAEGKLNAKVEEVMRPKLVMVEKDTKIGEALRLMRDEKVRILLVTDKGEPVGVITDQKILTRLAPEQVETEGHHHHHH | soluble
6 | MGSDKIHHHHHHMNIGGGKFLLGRISNNPTSGIVGLANVGKSTFFQAITNSKLGNPANYPFATIDAECAKVNIPSVPLSNLLRIYQSAKCVPGTLTIYDIAGLTRGASQGHGLGNKFLNDIRHVEGIFQVVRGFLKEDITHIEGNVDPVRDLSVVQDELILKDLEFLENIRERLSKKMRMVSKNSKEHQEMKIETELLDALEEHLFNGKKIRHFKDHWNLDEVKILNKHNFLTSKPTLILLNVSPQDYVRNENKFVRNIIEWINEFSPGDKFLLFSAEFESQLMECKGIASEYFDKIKEDTNVSDQQLVSAIPQIILEMRKLLNLISFFTCGPQEVHQWNIREGTTAQEAAGVIHSDLRETFISADVIKYDDLKKMEPPLNESLLKSKGLIKRAGKQYIMQDNDIALFKAAGGKIKK | not soluble
7 | GPGSMFGRSALCLAKRFRYNTKYPSLVSYNKLPWEILNHETPEFHMHVAPHYEQIMTLAASTHVPHIVGKKHLEMPPEHRLRLLPGMFYMLDGDSIPEGFTANRVLDPTALQYYGRLESLVAPVQAVRMLISDDLRIVCNSVTLQGPLQLPVASYASLASLEVVTNKASASFTLFHFVRPNRPPSELQLEKYYIHAPRAMALAEFNSTSNTSWEPKLQAPKRSKRVTPLPAYRPPQSYLMGLAERLAVVPGSSFGRRSLMWGHWF | not soluble
8 | MGSSHHHHHHSSGRENLYFQGMNDSIHGGLRVCQSTPLVQLQDRGRFGCRHLGVTQGGALDWLSMGWANWLLGNPLDAAVIEIALGGFVADCRADGWLALAGGDLGATLDGQPLPAWGAFAVRGGQRLAFAHPRQGARAYLAAPGGFAGERQLGSLATVAREGLGGPRADGKALAAGDSLGWLADGARPRALPLPSERIMDCTGEARLELILGAQIGDFPAMSLFDAFNGDWQVDTRADRMGVRLLGPRLECRQQSMISEGIALGAVQVPPDGQPIVLLNDRQTIGGYPRLGALAPLALARLAQCLPGQRVRLLPTVQEAAHREHRRLLAAWDA | soluble
9 | MQFSCSIPLPATFRPGDILAFHRRDRQEIAERVNHASVQKAMIWCGAPAYLSISFEPGLAKASLVIDGKIAEDRQPIFEGMVRRMLGLTQEIEIFEERYRDHPQLGILIAQQPGLRVPVTATPFEALTWAVTGQQISVNAAVSLRRKLIGATNTPHSCGLFCYPDARRILELPEETLRQAGFSTTKTRTLLALSALVADNELPLDAWVETLPVDVIREKLEAVRGIGPWTVNYGLLRGFGWLDGSLHGDAAVRRGLQALLGAQDKISEENTKVWLAQFSPWRALVGAHLWAAPVAIALEHHHHHH | not soluble
10 | MHTGCCTTKFDTEVLIIGNGPAGIALSSFLSGMHPFYDATHPHENVTVHEKLLANHDFSLIDQDLSWSSNLTELSQSGRPLSVLYDMLVRPGADMGSDAPGCIQWELNRRREIPHMVIGETKIGGSWNEYDAEMLTVSFSDWMDMPGFTMEQWLGGRPLVKRLPSVAIATYLKKYVERLRLRKKFHQYFVVNSIKKIGDVWVTSGKRSTDGRSFVIRSKQVVVACGKTSPRKLQLPNEEHCSSNIVYDVRALKERLDATKKTVIDEDENYDTPSTSTCSPVIVVGDGVSSVDCVRHCLERDIPVVHVIRRTLRELRNVMLSRLSPIHYSEYTDIYRMMIGRSVHKNYQRVLDASITSVSKIHVEITTGSNREIIEMPYSTVAVCIGRESHFSTVFENAHTFLDYQSEQDETLFAVGAYAGDHFVRFLVGGCLRVAQHITGAANNNNVTAKLLPIC | not soluble
11 | MDLFRKPKKRNAPVVRKKESSSDEDQDSEVKDVIQKRRRTNPMVQSTKQLDASTRRADNSSDDSDDSDDNQDIAVATHSFAASGDAGPSGPRDQGATATLEVDTDYSHDAQAQFERVQQQLKEGVEKDGKILYKGSALYGAKEAKDTAKGNAASGYNRVGPVRAPQFLRQTVRWDFAPDICKDYKETGFCTFGDSCKFVHDRSDYKHGWEIDEEYEAGKYGAEDDANYEIHEGDDTFPEDCFICGNPFVDPIVTKCKHYFCTGCALKSFQKSSKCPICQQNTENIMNTAKELLTYLKRKKQQQKQEAEKQEEEKDSDDDEKPHECDDHHHHDHEDEPEEPENDSNVPEAEEKSDEEQEIMMEDVEGLEGGENDSESDDDDAEKD | soluble
12 | MGSDKIHHHHHHMKIYIMKQQMRQAKRVNYLDEHLNCLFYNGNPEIGFRHLTLQKGKTWCELSAKNNYFFFLLEGALIVDFNECVGYEVGKGEMIYLPRSADFKIFAKESADLIILSYGIPVQLCDKLSLSQLGAFITDFKYEFKSLDIRVPLDTFLKLLVKYLDSGMSCQHMHELKQKELFLILRAYYTKEEKVNFFYHSIAASLTFKDKVMGVYLEARTVQELADKCGYGLKTFQRLFYSCFSEVPSKWLMKQKAQHVKARLLDRDIPIKVILDEFGFSTYANFCNYCKRYVGDTPRNIRESVTLGFRK | not soluble
13 | WYPSRPLVTTPSQADIQADQSSPRDLLEYFLSGLGETSLPVIQQQVQRYEQENQGLLIDSSLFAQYVQYKAALSELTLPQASGGLSTQEWWQLHQSLLDLQARYFSAEQQALFAEENRLRELAIEKRRIYEQYGQSEEAQRAWQALLLDQPDFIQRSEATAQLLPQLTQAGQGDTQQRYLARVALVGEQGAQRLAELDDSRATFEQQFQDYYQARAAILVRNELSASEQQTQIQQLREQHFAPEQWRRIDALERLKDN | not soluble
14 | MKVWRVEKREEGWRLDQFLKEKTPSWISRSMIQKAIKEGKVKVNGQIKKPSYKLKEGEIVEVDLPEKPQEATVQPEEIELKVLYEDRDIIVIDKPGDMIVHPVPSKLSGTLVNALLHHCKDLQGVGGKLRPGIVHRLDKETSGVIVVAKNDFAHQSLSKQFKDRKVKKTYILLVKGKMKNDEGVIDLPLARHPVLRIKMAVVETGKEAITEYRVLKRFDDVATLVLAFPKTGRTHQIRVHMKSLGHPIMGDKIYGKPKEDEIFGIKRQMLHALKLGFFHPRTGEWMEFVSPLPEDFKEAIRRIHEYVRERS | soluble
